Test results from patent publication US20230212554A1.

What was measured:
[1] = substrate: NP of B/Brisbane/60/2008(fluB) (influenza B virus B/Brisbane/60/2008); assay: ELISA on virus-infected fixed MDCK cells
[2] = substrate: NP of A/Brisbane/59/2007(H1N1/H1B) (influenza A virus A/Brisbane/59/2007 (H1N1)); assay: sandwich ELISA, capture IgG; NP of lysed virus titrated; HRP-NP16 detection
[3] = substrate: NP of A/Brisbane/59/2007(H1N1/H1B) (influenza A virus A/Brisbane/59/2007 (H1N1)); assay: ELISA on virus-infected fixed MDCK cells
[4] = substrate: NP of A/Brisbane/59/2007(H1N1/H1B) (influenza A virus A/Brisbane/59/2007 (H1N1)); assay: sandwich ELISA, capture IgG; NP of lysed virus titrated; HRP-NP17 detection

Row | Binder | EC50 [1] [nM] | EC50 [2] [nM] | EC50 [3] [nM] | EC50 [4] [nM]
1 | NP20 (antibody, V domains shown) VH: EVQLVESGGGLVQPGGSLRLSCAASGFTINGYSIHWVRQAPGKGLEWVASIGPYGGFTYYADSVKGRFTISADTSKNTAYLQMNSLRAEDTAVYYCAGFGFYYWGQGTLVTVSS VL: DIQMTQSPSSLSASVGDRVTITCRASQDVGYGVAWYQQKPGKAPKLLISGASGLYSGVPSRFSGSGSGTDFTLTISSLQPEDFATYYCQQYSSFPLTFGQGTKVEIKR | 4.88 |  |  | 
2 | NP22 (antibody, V domains shown) VH: EVQLVESGGGLVQPGGSLRLSCAASGFTISDWSIHWVRQAPGKGLEWVAGIWPYWGSTSYADSVKGRFTISADTSKNTAYLQMNSLRAEDTAVYYCARGFYSWFDYWGQGTLVTVSS VL: DIQMTQSPSSLSASVGDRVTITCRASQDVFSWVAWYQQKPGKAPKLLISSASSLYSGVPSRFSGSGSGTDFTLTISSLQPEDFATYYCQQSWDYPITFGQGTKVEIKR | 3.92 | 59.4 | 7.11 | 102
3 | NP21 (antibody, V domains shown) VH: EVQLVESGGGLVQPGGSLRLSCAASGFTINGYGIHWVRQAPGKGLEWVAGIWPYGGSTFYADSVKGRFTISADTSKNTAYLQMNSLRAEDTAVYYCARFYNNHGGIMDYWGQGTLVTVSS VL: DIQMTQSPSSLSASVGDRVTITCRASQDVYFYVAWYQQKPGKAPKLLIYGSRWLYSGVPSRFSGSGSGTDFTLTISSLQPEDFATYYCQQYSNFPVTFGQGTKVEIKR |  | 2.71 | 4.6 | 0.81
4 | NP15 (antibody, V domains shown) VH: EVQLVESGGGLVQPGGSLRLSCAASGFTISNWYIHWVRQAPGKGLEWVAGIGPYGGSTYYADSVKGRFTISADTSKNTAYLQMNSLRAEDTAVYYCARFHWDHLHGMDYWGQGTLVTVSS VL: DIQMTQSPSSLSASVGDRVTITCRASQDVDNNVAWYQQKPGKAPKLLISYSTGLYSGVPSRFSGSGSGTDFTLTISSLQPEDFATYYCQQYWNYPITFGQGTKVEIKR |  | 4.61 | 0.668 | 0.926
5 | NP7 (antibody, V domains shown) VH: EVQLVESGGGLVQPGGSLRLSCAASGFTISNGGIHWVRQAPGKGLEWVAGIGPYGGFTSYADSVKGRFTISADTSKNTAYLQMNSLRAEDTAVYYCARFYSNYYGYHGVMDYWGQGTLVTVSS VL: DIQMTQSPSSLSASVGDRVTITCRASQDVFGWVAWYQQKPGKAPKLLISYSASLYSGVPSRFSGSGSGTDFTLTISSLQPEDFATYYCQQYFNYPLTFGQGTKVEIKR |  | 4.13 |  | 4.15
6 | NP18 (antibody, V domains shown) VH: EVQLVESGGGLVQPGGSLRLSCAASGFTISGGGIHWVRQAPGKGLEWVASIWPSWGSTSYADSVKGRFTISADTSKNTAYLQMNSLRAEDTAVYYCARFHNGGFLVMDYWGQGTLVTVSS VL: DIQMTQSSSSLSASVGDRVTITCRASQDVGYYVAWYQQKPGKAPKLLIYGPRFLYSGVPSRFSGSGSGTDFTLTISSLQPEDFATYYCQQYSNWPITFGQGTKVEIKR |  |  | 7 | 66.4
7 | NP25 (antibody, V domains shown) VH: EVQLVESGGGLVQPGGSLRLSCAASGFTIGGGFIHWVRQAPGKGLEWVASIWPYWGFTYYADSVKGRFTISADTSKNTAYLQMNSLRAEDTAVYYCARGSYGYSDYWGQGTLVTVSS VL: DIQMTQSPSSLSASVGDRVTITCRAGQDVSSGVAWYQQKPGKAPKLLISWTSFLYSGVPSRFSGSGSGTDFTLTISSLQPEDFATYYCQQYYDYPITFGQGTKVEIKR | 2.17 |  | 4.83 | 
8 | NP17 (antibody, V domains shown) VH: EVQLVESGGGLVQPGGSLRLSCAASGFTISGGSIHWVRQAPGKGLEWVASIWPFGGSTFYADSVKGRFTISADTSKNTAYLQMNSLRAEDTAVYYCARFGHGHNVIMDYWGQGTLVTVSS VL: DIQMTQSPSSLSASVGDRVTITCRASQDVGYSVAWYQQKPGKAPKLLISSPGGLYSGVPSRFSGSGSGTDFTLTISSLQPEDFATYYCQQYYDYPVTFGQGTKVEIKR |  | 4.08 |  | 2.22
9 | NP19 (antibody, V domains shown) VH: EVQLVESGGGLVQPGGSLRLSCAASGFTISSWGIHWVRQAPGKGLEWVAGIGPFWGYTSYADSVKGRFTISADTSKNTAYLQMNSLRAEDTAVYYCARFGVDNYGYMDYWGQGTLVTVSS VL: DIQMTQSPSSLSASVGDRVTITCRASQDVSGWVAWYQQKPGKAPKLLISWSTGLYSGVPSRFSGSGSGTDFTLTISSLQPEDFATYYCQQYFNFPVTFGQGTKVEIKR |  | 3.37 | 0.295 | 0.812
10 | NP16 (antibody, V domains shown) VH: EVQLVESGGGLVQPGGSLRLSCAASGFTIGNSGIHWVRQAPGKGLEWVAWIGPYWGFTSYADSVKGRFTISADTSKNTAYLQMNSLRAEDTAVYYCARFGNHWHLFMDYWGQGTLVTVSS VL: DIQMTQSPSSLSASVGDRVTITCRASQDVGSYVAWYQQKPGKAPKLLISWTTGLYSGVPSRFSGSGSGTDFTLTISSLQPEDFATYYCQQYFSYPVTFGQGTKVEIKR |  | 4.74 | 0.21 | 0.89
11 | NP5 (antibody, V domains shown) VH: EVQLVESGGGLVQPGGSLRLSCAASGFTISNGSIHWVRQAPGKGLEWVAGIWPSGGSTSYADSVKGRFTISADTINNSAYLQMNSLRAEDTAVYYCARWNYWGQGTLVTVSS VL: DIQMTQSPSSLSASVGDRVTITCRASQDVGWSVAWYQQKPGKAPKLLIYGSRWLYSGVPSRFSGSGSGTDFTLTISSLQPEDFATYYCQQGYNGPLTFGQGTKVEIKR |  | 4.02 |  | 1.82
12 | NP3 (antibody, V domains shown) VH: EVQLVESGGGLVQPGGSLRLSCAASGFTISNYGIHWVRQAPGKGLEWVAGIWPFGGFTSYADSVKGRFTISADTSKNTAYLQMNSLRAEDTAVYYCARFHWNDHGYMDYWGQGTLVTVSS VL: DIQMTQSPSSLSASVGDRVTITCRASQDVGWYVAWYQQKPGKAPKLLIYSTTGLYSGVPSRFSGSGSGTDFTLTISSLQPEDFATYYCQQYYNYPITFGQGTKVEIKR |  | 2.36 | 0.521 | 1.04
13 | NP2 (antibody, V domains shown) VH: EVQLVESGGGLVQPGGSLRLSCAASGFTIGGGGIHWVRQAPGKGLEWVAGIWPYWGYTFYADSVKGRFTISADTSKNTAYLQMNSLRAEDTAVYYCARFWHGNLDVMDYWGQGTLVTVSS VL: DIQMTQSPSSLSASVGDRVTITCRASQDVYGYVAWYQQKPGKAPKLLIYGAAGLYSGVPSRFSGSGSGTDFTLTISSLQPEDFATYYCQQYSNFPLTFGQGTKVEIKR | 4.89 |  |  | 
14 | NP6 (antibody, V domains shown) VH: EVQLVESGGGLVQPGGSLRLSCAASGFTINDGSIHWVRQAPGKGLEWVAGIGPFGGFTYYADSVKGRFTISADTSKNTAYLQMNSLRAEDTAVYYCARSGYSGSFDYWGQGTLVTVSS VL: DIQMTQSPSSLSASVGDRVTITCRASQDVYFGVAWYQQKPGKAPKLLIYGTSYLYSGVPSRFSGSGSGTDFTLTISSLQPEDFATYYCQQFSNWPITFGQGTKVEIKR |  | 78.3 |  | 
15 | NP24 (antibody, V domains shown) VH: EVQLVESGGGLVQPGGSLRLSCAASGFTIDDWYIHWVRQAPGKGLEWVAGIGPYGGFTYYADSVKGRFTISADTSKNTAYLQMNSLRAEDTAVYYCARGYYGSFDYWGQGTLVTVSS VL: DIQMTQSPSSLSASVGDRVTITCRASQDVGSSVAWYQQKPGKAPKLLIFYTSSLYSGVPSRFSGSGSGTDFTLTISSLQPEDFATYYCQQGWDSPVTFGQGTKVEIKR | 3.17 |  |  | 
